Each block holds one compound with its values, some of them ahead of it.
Key:
[1] = target: T1, soluble adenylyl cyclase chimera IC1 IIC2 -L3 (C1a of type I adenylyl cyclase, residues 271-484, linked to C2a of type II adenylyl cyclase, residues 821-1090) (UniProt P19754+P26769); assay: Adenylyl cyclase activity of 150,000 g supernatant from E. coli expressing IC1 IIC2 -L3; type: biochemical, mammalian
T1 construct: IC1a includes residues 271-484 of type I adenylyl cyclase; IIC2a includes residues 821-1090 of type II adenylyl cyclase; made in house; host or cells: E. coli TP2000 (150,000 g supernatant)
T1 sequence (P19754+P26769 fused, change not shown): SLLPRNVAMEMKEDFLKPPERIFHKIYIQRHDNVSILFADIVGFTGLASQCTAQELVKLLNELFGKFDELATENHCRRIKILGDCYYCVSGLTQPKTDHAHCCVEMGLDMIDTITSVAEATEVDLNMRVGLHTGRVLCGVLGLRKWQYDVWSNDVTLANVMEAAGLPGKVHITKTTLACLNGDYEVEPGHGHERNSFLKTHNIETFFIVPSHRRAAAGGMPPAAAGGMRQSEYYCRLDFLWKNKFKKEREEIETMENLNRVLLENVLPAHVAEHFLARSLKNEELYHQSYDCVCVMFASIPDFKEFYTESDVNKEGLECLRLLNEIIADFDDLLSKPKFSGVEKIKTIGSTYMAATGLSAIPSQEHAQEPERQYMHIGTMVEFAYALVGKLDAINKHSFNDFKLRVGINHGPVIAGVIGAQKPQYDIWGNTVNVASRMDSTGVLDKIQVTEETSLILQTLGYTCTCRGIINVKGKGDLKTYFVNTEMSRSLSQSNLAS
Protocol: FIG. 2--Enzyme activity of chimeras.
Data shown are representative of at least two studies.
E. coli that contained the desired plasmids were grown in LB plus 50 μM carbenicillin to OD600 =0.3. Isopropyl-β-D-thiogalactopyranoside(100 μM) and chloramphenicol (0.5 μM) were added to induce expression of adenylyl cyclase for 12 hours. Bacteria were then collected by centrifugation at 4° C. and lysed by incubation at 4° C. for 30 min in 20 mM Tris-HCl (pH 8.0), 1 mM EDTA, 2 mM dithiothreitol (DTT) and protease inhibitors with 0.1 mg/ml of lysozyme. The suspension was sonicated briefly (3×20 sec) during incubation. The lysate was centrifuged (4° C.) at 150,000×g for 30 min, and the supernatant was recovered.
The inventors examined adenylyl cyclase activity in vitro in 150,000 g supernatant fractions from E. coli […] transformed with the various constructs. […] Ca^2+ -calmodulin had no detectable effect on activity, and lysates from cells expressing either IC1 or IIC2 had little adenylyl cyclase activity.
However, the maximal stimulatory effect of the G protein α subunit exceeded that of forskolin (FIG. 4). […] Synergistic activation of the enzyme was thus not due to alternation of apparent substrate affinity.

IC1 IIC2 -L3 [2] = target: IC1 IIC2 -L3
IC1 IIC2 -L3 [3] = target: IC1 IIC2 -L3; remark: listed apart in the source
[4] = target: mixture of IC1 and IIC2 (non-covalent complex of the C1 domain of type I and the C2 domain of type II adenylyl cyclase) (Bos taurus (Bovine); Rattus norvegicus (Rat)); assay: equilibrium constant of the model of FIG. 15, derived from the EC50 of activated Gsα for adenylyl cyclase activity of mixed IC1 and IIC2; no direct binding assay
[5] = target: mixture of IC1 and IIC2 (non-covalent complex of the C1 domain of type I and the C2 domain of type II adenylyl cyclase) (Bos taurus (Bovine); Rattus norvegicus (Rat))
[6] = target: IC1 (C1a domain of type I adenylyl cyclase, construct of Example 5) (Bos taurus (Bovine))
[7] = target: IC1 (C1a domain of type I adenylyl cyclase, construct of Example 5) (Bos taurus (Bovine)); assay: estimated from the adenylyl cyclase activity of 0.1 µM IC1 titrated with IIC2 without activator (FIG. 13A, model of FIG. 15); no direct binding assay
[8] = target: IC1 (C1a domain of type I adenylyl cyclase, construct of Example 5) (Bos taurus (Bovine)); remark: listed apart in the source

- stimulation of adenylyl cyclase activity ([1]; 150,000 g supernatant, FIG. 3): failed to stimulate
Compound: C=CC1(C)CC(=O)C2C3(C)CCCC(C)(C)C3C(O)C(OC(C)=O)C2(C)O1 (stereo not drawn) [1,9-dideoxyforskolin]

- adenylyl cyclase activity of 150,000 g supernatant (IC1 IIC2 -L3 [2]): 50 fold
- adenylyl cyclase activity of 150,000 g supernatant (IC1 IIC2 -L5): 50 fold
- adenylyl cyclase activity of 150,000 g supernatant (IC1 IIC2 -L1): 50 fold
- EC50 for activation of adenylyl cyclase activity (IC1 IIC2 -L3 [3]): 1000 nM
- K4 [4]: 0.4 µM
- adenylyl cyclase activity of purified mixed fragments (8 nM IC1, 6.6 µM IIC2) against the concentration of activated Gsα [5]: > 100 fold
Compound: wild-type alpha subunit of the G protein (Gsα)

- EC50 for IIC2, adenylyl cyclase activity with IC1 in the absence of activators [6]: > 10000 nM
- Kd [7]: > 10000 nM
- apparent EC50 for IIC2, adenylyl cyclase activity with 8 nM IC1, 50 µM FSK and 10 µM GTP[γS]-Gsα [8]: 15 nM
- apparent EC50 for IIC2, adenylyl cyclase activity with 8 nM IC1 and 50 µM FSK [8]: 190 nM
Compound: IIC2 (C2 domain of type II adenylyl cyclase, construct of Example 5) (enzyme)

- inhibition of adenylyl cyclase activity (P-site inhibitor), mode ([1]; forskolin-activated enzyme, FIG. 7): inhibited noncompetitively
Compound: Nc1ncnc2c1ncn2[C@H]1C[C@H](OP(=O)(O)O)[C@@H](CO)O1 [2'-deoxy-3'-AMP]

— patent US6107076A, “Soluble mammalian adenylyl cyclase and uses therefor” (Board of Regents, The University of Texas System, priority 1996, dated 2000)
